Source: patent US5763571A, “Inhibiting protein interactions” (The General Hospital Corporation, priority 1995, dated 1998)

How the values were obtained:
GAP = target: T1, GAP (Homo sapiens, UniProt P20936); settings: Schaber et al. 1989; cited from earlier work
T1 sequence (P20936 1-1047): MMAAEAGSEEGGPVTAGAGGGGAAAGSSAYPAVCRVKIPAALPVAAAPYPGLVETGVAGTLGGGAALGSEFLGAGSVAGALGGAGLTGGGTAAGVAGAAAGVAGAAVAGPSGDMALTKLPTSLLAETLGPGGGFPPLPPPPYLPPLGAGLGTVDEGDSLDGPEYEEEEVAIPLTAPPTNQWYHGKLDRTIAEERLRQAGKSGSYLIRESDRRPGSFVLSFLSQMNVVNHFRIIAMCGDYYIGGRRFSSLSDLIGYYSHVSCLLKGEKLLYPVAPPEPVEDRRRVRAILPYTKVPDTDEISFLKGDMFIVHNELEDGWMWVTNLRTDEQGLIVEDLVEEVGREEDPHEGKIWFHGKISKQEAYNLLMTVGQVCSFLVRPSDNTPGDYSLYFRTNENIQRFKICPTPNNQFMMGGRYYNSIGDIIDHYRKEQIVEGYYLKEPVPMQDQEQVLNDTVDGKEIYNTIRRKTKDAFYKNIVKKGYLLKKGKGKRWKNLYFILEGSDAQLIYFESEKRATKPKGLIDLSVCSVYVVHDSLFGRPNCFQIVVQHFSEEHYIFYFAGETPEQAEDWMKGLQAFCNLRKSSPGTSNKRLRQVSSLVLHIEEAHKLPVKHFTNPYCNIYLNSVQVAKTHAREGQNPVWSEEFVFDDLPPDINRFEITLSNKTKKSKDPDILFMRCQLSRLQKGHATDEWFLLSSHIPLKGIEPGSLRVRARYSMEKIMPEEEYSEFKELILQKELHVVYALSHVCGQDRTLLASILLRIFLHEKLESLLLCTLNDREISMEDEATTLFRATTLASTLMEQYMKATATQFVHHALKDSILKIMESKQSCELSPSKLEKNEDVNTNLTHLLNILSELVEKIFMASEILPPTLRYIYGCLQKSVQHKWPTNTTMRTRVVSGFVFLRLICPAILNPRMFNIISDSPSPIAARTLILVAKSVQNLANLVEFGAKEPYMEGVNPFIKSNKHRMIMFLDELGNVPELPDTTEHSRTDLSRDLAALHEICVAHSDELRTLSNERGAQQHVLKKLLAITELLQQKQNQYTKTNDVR

[1] = target: T2, Ras-GAP stimulation of c-rasH GTPase (Homo sapiens, UniProt P01112); experiment: Inhibition of Ras-GAP stimulation of c-rasH GTPase; type: biochemical; settings: added at a concentration nearly equal to Ras-GAP
T2 construct: made in house; host or cells: Sf9 (baculovirus)
Method: The GTPase activity was estimated from the γ^32 P-GTP remaining bound to c-rasH after filtration.
In these experiments, baculoviral recombinant c-rasH was expressed and purified from the membrane pellet of Sf9 cells as described for the baculoviral membrane V12GrasH above. The c-rasH was charged with γ^32 P-GTP by combining 0.1 ml of c-rasH (approximately 10 μg/ml) in Ras storage buffer with 0.3 ml of 60 mM TrisCl, pH 7.5, 5 mM EDTA, 0.7 mg/ml BSA, 1.5 mM DTT, 4 mM ATP, 0.142 μM γ^32 P-GTP (4-6 ×10^5 cpm/pmole) on ice. After 1 hour, 50 μl of 135 mM MgCl2 was added. Loading of c-rasH with α^32 P-GTP was carried out under the same conditions; the α^32 P-GTP-c-rasHwas separated from unbound nucleotide by gel filtration (PD-10) in 25 mM TrisCl, pH 7.5, 5 mM MgCl2, 3 mM ATP, 1 mM DTT, and stored on ice. Baculoviral recombinant, full-length human GAP protein was extracted from Sf9 cells by homogenization in 25 mM TrisCl pH 7.5, 1 mM EGTA, 5 mM MgCl2, 1 mM DTT (GAP buffer) and protease inhibitors. […] GAP was detected using a radiolabeled Ras peptide in a filter binding assay. […] The mixture was filtered through a BA85 nitrocellulose membrane, washed 3×with 4 ml of stop solution, and the filters analyzed for retained ^32 P-labeled nucleotide.

GTPγS-loaded V12GrasH = experiment: In vitro direct binding of Ras to immobilized GST-Raf (immunoblot); settings: immobilized on glutathione agarose, 6 hours 4° C., pan-Ras immunoblot
Method: In vitro direct binding experiments were carried out as follows. […] After 6 hours of tumbling at 4° C., the glutathione agarose beads were washed and analyzed for the binding of Ras peptide by sodium dodecyl sulfate-polyacrylamide gel electrophoresis (SDS-PAGE), followed by immunoblotting using a pan-Ras monoclonal antibody-2 (oncogene Science).
The DNA sequences encoding Raf1 amino acid residues 1-257 were generated by the polymerase chain reaction (PCR), using as template the plasmids RSV-C4 and RSV-PM17 (Bruder, J. T., Heidecker, G. & Rapp, U.R. Genes Dev. 6, 545-556 (1992)), which encode the wild-type and C168 →S mutant sequences, respectively. The c-DNA were inserted into pGEX-KG (Guan, K. L. and Dixon J. E., Anal Biochem. 192, 262-267 (1991)) at the EcoR1 and Sall sites, and sequenced to confirm the mutation and proper in-frame insertion. […] About 50% of the recombinant peptides were recovered as full-length fusion proteins. […] The beads were washed 4×and resuspended in buffer A as a 50% suspension. […] Following transfer to polyvinylidene difluoride (PVDF) membrane, the membrane was immunoblotted using pan-Ras monoclonal antibody-2 (Oncogene Science) and detected using the enhanced chemiluminescence technique (Amersham).

Ras-GTP = target: T3, Ras-GTP (Homo sapiens, UniProt P01112); experiment: Comparative co-precipitation of Ras-GTP-γ-32P by GST-Raf proteins; type: binding; settings: 10 pmol GST-Raf protein, single concentration
T3 construct: made in house; host or cells: E. coli

[2] = target: T4, complex formation between Ras-GTP and GST-Raf(1-257) (Homo sapiens, UniProt P01112+P04049); experiment: Inhibition of Ras/Raf co-precipitation by synthetic peptides (contact epitope scanning); type: binding
T4 construct: 6xHis (6XH) (C); made in house; host or cells: E. coli

| Complex formation with Ras-GTP-γ-32P by co-precipitation (in words) (Ras-GTP) | Substance | Competition of Ras/GAP interaction (in words), previous study (GAP) | also measured |
| --- | --- | --- | --- |
|  | 31-43: Ras peptide of a previous study (Schaber et al.) (EYDPTIEDSYRKQ; UniProt P01112 31-43, looked up, fragment) | did not compete at all |  |
|  | GST-Raf(1-257, C168 →S): mutant fragment in which serine replaces cysteine at position 168 |  | Inhibition of Ras-GAP stimulation of Ras GTPase (in words) [1]: significantly less inhibition; Binding of GTPγS-V12GrasH (in words) (GTPγS-loaded V12GrasH): significantly lower amounts of Ras are retained |
| complexed as well with Ras-GTP | GST-Raf(51-149): GST fusion of c-Raf-1 residues 51-149 (SEQ ID NO:7) |  |  |
|  | Ras 23-37: Ras peptide of a previous study (Schaber et al.) (LIQNHFVDEYDPTIE; UniProt P01112 23-37, looked up, fragment) | did not compete at all |  |
| complexed as well with Ras-GTP | GST-Raf(1-131): GST fusion of c-Raf-1 residues 1-131, unstable |  |  |
|  | 96-112 peptide: acetylated, C-terminal amide peptide of c-Raf-1 residues 96-112 (Ac-CAVFRLLHEHKGKKARL-NH2) |  | Inhibition of Ras-Raf association by peptide (in words) [2]: little inhibition |
